Measured values as given in PMC7055300 (2020).

B1: full-length E2F1, purified, recombinant (natural protein)
chain: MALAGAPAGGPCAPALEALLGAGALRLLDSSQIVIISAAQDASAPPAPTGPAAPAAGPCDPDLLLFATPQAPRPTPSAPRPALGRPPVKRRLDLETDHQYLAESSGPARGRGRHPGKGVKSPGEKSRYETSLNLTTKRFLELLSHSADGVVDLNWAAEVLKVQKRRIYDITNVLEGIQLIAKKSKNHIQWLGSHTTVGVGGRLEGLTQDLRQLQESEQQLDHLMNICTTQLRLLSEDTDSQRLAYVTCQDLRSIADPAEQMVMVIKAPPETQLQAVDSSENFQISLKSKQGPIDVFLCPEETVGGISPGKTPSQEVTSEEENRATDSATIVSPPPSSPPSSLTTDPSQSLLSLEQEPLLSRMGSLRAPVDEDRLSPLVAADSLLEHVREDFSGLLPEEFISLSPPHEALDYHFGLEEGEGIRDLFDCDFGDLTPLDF

Molecular target: T1, human Retinoblastoma-1 (RB) pocket domain (human, UniProt P06400 373-771)
T1 chain: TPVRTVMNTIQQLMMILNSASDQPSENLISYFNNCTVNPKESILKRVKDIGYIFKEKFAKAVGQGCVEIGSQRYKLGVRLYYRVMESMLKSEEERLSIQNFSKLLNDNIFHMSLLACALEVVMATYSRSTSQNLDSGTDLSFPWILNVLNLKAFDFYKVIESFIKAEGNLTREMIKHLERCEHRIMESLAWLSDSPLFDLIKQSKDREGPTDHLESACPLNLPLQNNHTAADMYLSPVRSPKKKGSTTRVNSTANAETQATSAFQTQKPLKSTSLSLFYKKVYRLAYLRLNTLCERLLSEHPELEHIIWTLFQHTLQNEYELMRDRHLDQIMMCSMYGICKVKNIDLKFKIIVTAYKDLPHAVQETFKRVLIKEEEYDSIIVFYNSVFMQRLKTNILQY
Experiment: SPR

| Binder | Kd [µM] |
| --- | --- |
| YIEEVFTPLVLKCKELK [LXCXE peptide derived from TpGcpE (TpMuguga_02g00667)] | 22.4 |
| B1 | 0.0331 |
